Residue numbers refer to the chain shown, from its start.
B1: Hu147-11wk (antibody, human IgG1, kappa, V domains shown)
VH: EVQLVESGGGLVQPGGSLRLSCAASGFTFSTYAMNWVRQAPGKGLEWVGRIRTKSNNYATYYADSVKDRFTISRDDSKNSLYLQMNSLKTEDTAVYYCVETGFAYWDQGTLVTVSS
VL: EIVLTQSPATLSLSPGERATLSCSASSSVSYMHWFQQKPGQSPRLLIYSTSNLASGIPARFSGSGSGTDYTLTISSLEPEDFAVYYCQQRSSYPLTFGQGTKLEIKR
B2: Hu147-23wk (antibody, human IgG1, kappa, V domains shown)
VH: B1 VH with S30N, G49A
VL: B1 VL with R44K, L46W, I57V
B3: Hu164-57wl (antibody, human IgG1, lambda, V domains shown)
VH: EVTLKESGPVLVKPTETLTLTCTVSGFSLSTFGVHWIRQPPGKALEWLAVIWRRGGTDYNAAFMSRLTISKDTSKSQVVLTMTNMDPVDTATYYCARDGGFDYWGQGTTVTVSS
VL: ETVVTQEPSLTVSPGGTVTLTCRSSIGAVTTSNYANWVQQKPGQAFRGLIGGTSNRAPWTPARFSGSLLGGKAALTLSGVQPEDEAEYYCALWYSTHYVFGGGTKLTVLG
B4: Hu147-12wk (antibody, human IgG1, kappa, V domains shown)
VH: B1 VH
VL: B1 VL with R44K
B5: Hu147-24wk (antibody, human IgG1, kappa, V domains shown)
VH: B1 VH with S30N, G49A
VL: DIQMTQSPSSLSASVGDRVTITCSASSSVSYMHWFQQKPGKSPKLLIYSTSNLASGVPSRFSGSGSGTDYTLTISSLQPEDFATYYCQQRSSYPLTFGQGTKLEIKR
B6: Hu147-13wk (antibody, human IgG1, kappa, V domains shown)
VH: B1 VH
VL: B1 VL with R44K, L46W, I57V
B7: Hu147-31wk (antibody, human IgG1, kappa, V domains shown)
VH: B1 VH with T28S, S30N, G49A, K78E, N79S
VL: B1 VL
B8: Hu164-77wl (antibody, human IgG1, lambda, V domains shown)
VH: EVQLQESGPGLVKPSQTLSLTCTVSGFSISTFGVHWIRQHPGKGLEWIGVIWRRGGTDYNAAFMSRVTISKDTSKNQVSLKLSSVTAADTAVYYCARDGGFDYWGQGTTVTVSS
VL: B3 VL
B9: Hu147-14wk (antibody, human IgG1, kappa, V domains shown)
VH: B1 VH
VL: B5 VL
B10: Hu147-32wk (antibody, human IgG1, kappa, V domains shown)
VH: B1 VH with T28S, S30N, G49A, K78E, N79S
VL: B1 VL with R44K
B11: Hu164-87wl (antibody, human IgG1, lambda, V domains shown)
VH: B8 VH with I48L, V67L, L80F
VL: B3 VL
B12: Hu147-15wk (antibody, human IgG1, kappa, V domains shown)
VH: B1 VH
VL: B5 VL with M4L, L46W
B13: Hu147-33wk (antibody, human IgG1, kappa, V domains shown)
VH: B1 VH with T28S, S30N, G49A, K78E, N79S
VL: B1 VL with R44K, L46W, I57V
B14: Hu164-68wl (antibody, human IgG1, lambda, V domains shown)
VH: B3 VH with A44G, A49G, L80F
VL: ETVVTQEPSFSVSPGGTVTLTCRSSIGAVTTSNYANWVQQTPGQAFRGLIGGTSNRAPGVPDRFSGSILGNKAALTITGAQADDESDYYCALWYSTHYVFGGGTKLTVLG
B15: Hu147-21wk (antibody, human IgG1, kappa, V domains shown)
VH: B1 VH with S30N, G49A
VL: B1 VL
B16: Hu147-34wk (antibody, human IgG1, kappa, V domains shown)
VH: B1 VH with T28S, S30N, G49A, K78E, N79S
VL: B5 VL
B17: Hu164-69wl (antibody, human IgG1, lambda, V domains shown)
VH: B3 VH with A44G, A49G, L80F
VL: ESVVTQPPSVSGAPGQRVTISCRSSIGAVTTSNYANWVQQLPGTAFKGLIGGTSNRAPGVPDRFSGSKSGTSASLAITGLQAEDEADYYCALWYSTHYVFGGGTKLTVLG
B18: Hu147-22wk (antibody, human IgG1, kappa, V domains shown)
VH: B1 VH with S30N, G49A
VL: B1 VL with R44K
B19: Hu95-51yk (antibody, human IgG1, kappa, V domains shown)
VH: EVQLVQSGAEVKKPGASVKVSCRASGFTFTNYAIHWVKQAPGQRLEWMGLVYPYTGGTAYNQKFKDKVTLTFDTSASTAYMELSSLRSEDTAVYYCARWGMIPGTNSYFDVWGQGTTVTVSS
VL: EIVLTQSPATLSLSPGERATLSCRASSSVSYIHWYQQKPGQAPRPWIYATSNLASGIPARFSGSGSGTDYTLTISRLEPEDFAVYYCQQWNSNPWTFGGGTKVEIKR

Biological target: Cynomolgus monkey CTGF-Fc (cynomolgus monkey)
Sequence (P29279 other isoform, or with tags, fused parts or gaps limits assumed): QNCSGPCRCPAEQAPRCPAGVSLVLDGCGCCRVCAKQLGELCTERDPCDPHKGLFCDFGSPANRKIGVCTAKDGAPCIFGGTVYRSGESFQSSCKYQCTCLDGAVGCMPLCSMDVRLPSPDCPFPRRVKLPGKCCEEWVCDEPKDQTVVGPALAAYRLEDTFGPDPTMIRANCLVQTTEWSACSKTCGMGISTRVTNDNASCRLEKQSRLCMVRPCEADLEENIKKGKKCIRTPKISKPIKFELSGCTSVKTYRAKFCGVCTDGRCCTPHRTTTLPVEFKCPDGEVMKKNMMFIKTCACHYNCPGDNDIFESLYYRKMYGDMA
Test: ELISA, cyno-CTGF-mFc captured by anti-mFc

EC50 [nM] | Binder
0.052 | B1
0.063 | B2
0.029 | B3
0.062 | B4
0.08 | B5
0.043 | B6
0.07 | B7
0.038 | B8
0.077 | B9
0.079 | B10
0.034 | B11
0.053 | B12
0.044 | B13
0.036 | B14
0.053 | B15
0.144 | B16
0.032 | B17
0.073 | B18
0.059 | B19

From US20230416352A1
